# Reference: patent publication US20220251157A1 (MAYO FOUNDATION FOR MEDICAL EDUCATION AND RESEARCH, published 2022)
# Positions of bridges follow the written chain, without caps; N, C: chain ends. No end group written: not given here.
# T1: 12p4 (disulfide 1-9; also: displayed on phage)
# T1 construct: one clone only
# T1 peptide: CARNSTPPC
# T2: 12p9a (disulfide 1-9; also: displayed on phage)
# T2 peptide: CHQTEKLTC
# B1: B7-DC XAb (antibody)
# light: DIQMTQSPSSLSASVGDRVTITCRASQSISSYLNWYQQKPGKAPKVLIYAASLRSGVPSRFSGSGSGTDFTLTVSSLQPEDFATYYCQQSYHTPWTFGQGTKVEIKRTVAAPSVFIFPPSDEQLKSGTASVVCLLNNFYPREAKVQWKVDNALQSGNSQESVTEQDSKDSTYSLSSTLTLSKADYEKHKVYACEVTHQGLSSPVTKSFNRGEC
# heavy: QVQLQESGPGLLKPSETLSLTCTVSGGSVSLYYWSWIRQSPGKEPEWIGYIYSSGSTDYNPSLRSRVTISLDTSNNRFSLNLRSVTAADTAVYWCARSASIRGWFDPWGQGTLVTVSSGSASAPTLFPLVSCENSPSDTSSVAVGCLAQDFLPDSITFSWKYKNNSDISSTRGFPSVLRGGKYAATSQVLLPSKDVMQGTDEHVVCKVQHPNGNKEKNVPLPVIAELPPKVSVFVPPRDGFFGNPRKSKLICQATGFSPRQIQVSWLREGKQVGSGVTTDQVQAEAKESGPTTYKVTSTLTIKESDWLSQSMFTCRVDHRGLTFQQNASSMCVPDQDTAIRVFAIPPSFASIFLTKSTKLTCLVTDLTTYDSVTISWTRQNGEAVKTHTNISESHPNATFSAVGEASICEDDWNSGERFTCTVTHTDLPSPLKQTISRPKGVALHRPDVYLLPPAREQLNLRESATITCLVTGFSPADVFVQWMQRGQPLSPEKYVTSAPMPEPQAPGRYFAHSILTVSEEEWNTGETYTCVVAHEALPNRVTERTVDKSTGKPTLYNVSLVMSDTAGTCY
# notes: Human monoclonal IgM from a Waldenstrom's macroglobulinemia patient; J chain not described; Used at 10 ug/ml; also called hIgM12; sHIgM12
# Columns and labels:
# 12p4 = target: T1, 12p4; experiment: phage display panning (Ph.D.-C7C) on immobilized antibody, bound phage eluted; 1x clone
# From the text: (§1) A phage display system (Ph.D.-C7C Peptide Library Kit, New England Biolabs) was used to select 7-mer peptides in a cysteine loop for either hIgM12 or hIgM22. Briefly, a random peptide bacteriophage library was panned against immobilized antibody. Unbound bacteriophage was washed away, and bound bacteriophage was eluted, regrown and re-panned against the antibody. Multiple (three to seven) rounds of panning led to development of a peptide consensus sequence for each antibody. Two similar consensus sequences were identified for hIgM22, while one consensus sequence was identified for hIgM12 (Table 1).
# 12p9a = target: T2, 12p9a; experiment: phage display panning (Ph.D.-C7C) on immobilized antibody, bound phage eluted; 11x clones
# From the text: as §1
binder,measurement,setting,value
B1,binding result,12p4,binds
same,binding result,12p9a,binds
